Measured values reported in PMC11387133.

Molecular target: microtubules of purified bovine brain tubulin (bovine) (UniProt Q6B856)
Experiment: optical trap rupture force assay; kinetochores held on beads by α-penta-His antibody; dynamic microtubules grown from coverslip-anchored GMPCPP seeds; force ramp 0.25 pN/s; 23 °C; BRB80

Substance	median rupture force
purified native S. cerevisiae kinetochores (from UniProt P40568 1-576) (complex)	7.2 pN
purified native K. marxianus kinetochores (from UniProt A0ABX6F0Z3 1-547; A0ABX6F2N8 1-203; A0ABX6ES48 1-179; A0ABX6ET36 1-377) (complex)	7.5 pN
